# Data published in paper doi:10.1101/2024.09.05.611543 (bioRxiv, 2024).
# Target: the molecule itself
# Test: SEC-MALS
row,Protein,stoichiometry N
1,"CaKip3 PT (proximal tail only; residues 475-707), His6-MBP fusion (domain or fragment, Candida albicans, UniProt A0A1D8PKA4 475-707, looked up) KRKDLESKVFKILFESLESTRKAIAKQNQEKWKKYFILAKRKLLLSQKIETELVLEQRDDIDINSLSIASGNESESVFKIYDLCEQLISKIEYQLPQLESQYSQPTDLDYILEDSAMQTLKRLQDEEGWTEHHSAIYRQSIQSMKREVHTDLLLYSSILYDNLIHDLSIFFYIPREIGNFINNISNPTSLNEANQELLYNMTLGLENLLNGEFDSAMEHYAMDYMKNKVESEN",2
2,"CaKip3 NE-PT (neck extension and proximal tail; residues 444-707), His6-MBP fusion (domain or fragment, Candida albicans, UniProt A0A1D8PKA4 444-707, looked up) VGSYLKMITEQKQEIEELRARESKMVESTINKRKDLESKVFKILFESLESTRKAIAKQNQEKWKKYFILAKRKLLLSQKIETELVLEQRDDIDINSLSIASGNESESVFKIYDLCEQLISKIEYQLPQLESQYSQPTDLDYILEDSAMQTLKRLQDEEGWTEHHSAIYRQSIQSMKREVHTDLLLYSSILYDNLIHDLSIFFYIPREIGNFINNISNPTSLNEANQELLYNMTLGLENLLNGEFDSAMEHYAMDYMKNKVESEN",2
3,"CaKip3 MD-PT (motor domain, neck linker, neck extension and proximal tail domain; residues 1-707) (domain or fragment, Candida albicans, UniProt A0A1D8PKA4 1-707, looked up) MSYPNSLGSPATVTSTSVPTAKQSSISVAVRVRPFTEAESNRLVKIDNDDVFLGDGCLTSDNNNNNNNSNSNGNGNGNGSSAANSSGASTSRRAIFNTLGGLRKIINVVDDRMLIFDPPETNPLTKMQRNAFPNSFKGSRIREHRFVFDRLFDEDCTQDQVYRNTTQPLLDSVLDGYNATVFAYGATGCGKTHTISGTPEDPGVIFLTMKELYNRIEELKDTKIIDISLSYLEIYNETIRDLLNPMTQCKNLVIREDANNKISVSNLSRHRPNSVEEVMQLILEGNKNRTCSPTEANATSSRSHAVLQINVIQKDRTGDITEEHTFATLSIIDLAGSERAAATKNRGARLNEGANINKSLLALGNCINALCDPRRRNHVPYRDSKLTRLLKFSLGGNCKTVMIVCVSPSSQHYDETLNTLKYADRAKEIKTKLIRNQHNLDRHVGSYLKMITEQKQEIEELRARESKMVESTINKRKDLESKVFKILFESLESTRKAIAKQNQEKWKKYFILAKRKLLLSQKIETELVLEQRDDIDINSLSIASGNESESVFKIYDLCEQLISKIEYQLPQLESQYSQPTDLDYILEDSAMQTLKRLQDEEGWTEHHSAIYRQSIQSMKREVHTDLLLYSSILYDNLIHDLSIFFYIPREIGNFINNISNPTSLNEANQELLYNMTLGLENLLNGEFDSAMEHYAMDYMKNKVESEN",2
